Reference: PMC4663164 (The Biochemical journal, 2015)
Values belong to the molecule of their own block, whether it stands above or below them.

Legend:
[1] = molecular target: HMR-1^S1212E,T1215E,S1218E (polyhistidine-tagged HMR-1^1108–1223) (C. elegans); experiment: liposome co-flotation
[2] = molecular target: HMR-1^S1212E (polyhistidine-tagged HMR-1^1108–1223) (C. elegans); experiment: liposome co-flotation
[3] = molecular target: HMR-1^T1215E,S1218E (polyhistidine-tagged HMR-1^1108–1223) (C. elegans); experiment: liposome co-flotation
[4] = molecular target: CK1-phosphorylated HMR-1^1108–1223 (polyhistidine-tagged) (C. elegans); experiment: liposome co-flotation
[5] = molecular target: the molecule itself; experiment: SEC-MALS

fold increase in HMP-1/HMP-2 association against unmodified HMR-1^1108–1223 [1]: 2.2 fold | fold increase in HMP-1/HMP-2 recovery against unmodified HMR-1^1108–1223 [2]: 1.8 fold | fold increase in HMP-1/HMP-2 binding against unmodified HMR-1^1108–1223 [3]: 1.4 fold | fold enhancement in HMP-1/HMP-2 recovery against unphosphorylated HMR-1 [4]: 6 fold
Molecule: HMP-1/HMP-2 complex (untagged, purified) (from UniProt P90947 1-927; O44326 1-678)

B1: recombinant full-length HMP-2 (natural protein, C. elegans, UniProt O44326 1-678, looked up)
chain: MLLHSTNSYSIFTDHEVETRTSRIRSAMFPDWIPPTSAAEATNSTTSIVEMMQMPTQQLKQSVMDLLTYEGSNDMSGLSLPDLVKLMCDHDESVVARAVHRAYMLSREDPNFFNAPGFDHRSFVEALMAASKSSNVNVRRNAIGALSHMSEQRGGPLLIFRSGGLAEIIRMLYDSLESVVHYAVTTLRNLLMHVSDSRAQARALNAVEALTPHLHKTNPKLLAQVADGLYFLLIDDAPSKITFLSLLGPQILVSILREYSDHRKLIYTVVRCIRSLSVCPSNKPALISLGCLPALYVELCTAKDERSQTAILVAMRNLSDSATNEENLTQLIIKLLEIIRVANDGMTACACGTLSNLTCNNTRNKQTVCSHGGIDALVTAIRRLPEVEEVTEPALCALRHCTARHSLAEEAQSELRFCQAFPVILDQLETLRTPVIKAALGVIRNSALLQTNLIELTQEQTANGHTAVSLTMDILRRAITAIEENPDIAVDGVPMWGVIEGAVSALHQLANHPAVAAACCDDIGQVGNPECPPFLDLLHRLLAHPRLGSMDDEVLEREILGLLYQLSKRPDGARAVESTGVSALLMESRGSQYKSVVTYANGVLSNLKRGDSAAIMNMSNSYDYEMSGSAADWQRDGLERELFAEMYPTNDGGHSESINMALNNSQMRPNHNWYDTDL
stoichiometry N [5]: 2
